According to PMC12062136:

Target: mCherry^N-gp418^N chimeric protein

gp418^C-mCherry^C chimeric protein was tested, and the concurrent in situ splicing in a four-strain E. coli co-culture: mCherry fluorescence (580 nm excitation-610 nm emission) of the purified protein mixture was 35000 a.u.
